# Measurements reported in the supplement of paper PMC12338614.
# ± gives the uncertainty stated by the source.
# B1: library; numbered along this chain (parent)
# chain: MEVVDPQQLGMFTEGELMSVGMDTFIHRIDSTEVIYQPRRKRAKLIGKYLMGDLLGEGSYGKVKEVLDSETLCRRAVKILKKKKLRRIPNGEANVKKEIQLLRRLRHKNVIQLVDVLYNEEKQKMYMVMEYCVCGMQEMLDSVPEKRFPVCQAHGYFCQLIDGLEYLHSQGIVHKDIKPGNLLLTTGGTLKISDLGVAEALHPFAADDTCRTSQGSPAFQPPEIANGLDTFSGFKVDIWSAGVTLYNITTGLYPFEGDNIYKLFENIGKGSYAIPGDCGPPLSDLLKGMLEYEPAKRFSIRQIRQHSWFRKKHPPAEAPVPIPPSPDTKDRWRSMTVVPYLEDLHGADEDEDLFDIEDDIIYTQDFTVPGQVPEEEASHNGQRRGLPKAVCMNGTEAAQLSTKSRAEGRAPNPARKACSASSKIRRLSACKQQ
# Variants of: B1
# Assay: STK11 functional score (HeLa growth suppression), rescaled enrichment; synonymous median = 1, nonsense median = 0 (normalised score)
# Conditions: with HeLa; variant type: missense
# Method in brief: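 Codon-randomised (POPCode) libraries of codon-optimised STK11 were integrated by Bxb1 at an AAVS1 landing pad in HeLa, in three regions each transfected three times. Integrants (BFP-negative, mCherry-positive) were FACS-sorted 4–5 days after electroporation and grown about two weeks; tiled gDNA amplicons were sequenced on NextSeq (~2 million reads per tile). The functional score is the wild-type-corrected post/pre-selection log ratio, rescaled to synonymous and nonsense medians, merged over codons and replicate transfections, with bootstrapped error.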
row,Variant,STK11 functional score
1,MEVVDPQQLGMFTEGELMSVGMDTFIHRIDSTEVIYQPRRKRAKLIGKYLMGDLLGEGSYGKVKEVLDSETLCRRAVKILKKKKLRRIPNGEANVKKEIQLLRRLRHKNVIQLVDVLYNEEKQKMYMVMEYCVCGMQEMLDSVPEKRFPVCQAHGYFCQLIDGLEYLHSQGIVHKLIKPGNLLLTTGGTLKISDLGVAEALHPFAADDTCRTSQGSPAFQPPEIANGLDTFSGFKVDIWSAGVTLYNITTGLYPFEGDNIYKLFENIGKGSYAIPGDCGPPLSDLLKGMLEYEPAKRFSIRQIRQHSWFRKKHPPAEAPVPIPPSPDTKDRWRSMTVVPYLEDLHGADEDEDLFDIEDDIIYTQDFTVPGQVPEEEASHNGQRRGLPKAVCMNGTEAAQLSTKSRAEGRAPNPARKACSASSKIRRLSACKQQ [D176L],-0.164 ± 0.061
2,MEVVDPQQLGMFTEGELMSVGMDTFIHRIDSTEVIYQPRRKRAKLIGKYLMGDVLGEGSYGKVKEVLDSETLCRRAVKILKKKKLRRIPNGEANVKKEIQLLRRLRHKNVIQLVDVLYNEEKQKMYMVMEYCVCGMQEMLDSVPEKRFPVCQAHGYFCQLIDGLEYLHSQGIVHKDIKPGNLLLTTGGTLKISDLGVAEALHPFAADDTCRTSQGSPAFQPPEIANGLDTFSGFKVDIWSAGVTLYNITTGLYPFEGDNIYKLFENIGKGSYAIPGDCGPPLSDLLKGMLEYEPAKRFSIRQIRQHSWFRKKHPPAEAPVPIPPSPDTKDRWRSMTVVPYLEDLHGADEDEDLFDIEDDIIYTQDFTVPGQVPEEEASHNGQRRGLPKAVCMNGTEAAQLSTKSRAEGRAPNPARKACSASSKIRRLSACKQQ [L54V],0.645 ± 0.14
3,MEVVDPQQLGMFTEGELMSVGMDTFIHRIDSTEVIYQPRRKRAKLIGKYLMGDLLGEGSYGKVKEVLDSETLCRRAVKILKKKKLRRIPNGEANVKKEIQLLRRLRHKNVIQLVDVLYNEEKQKMYMVMEYCVCGMQEMLDSVPEKRFPVCQAHGYFCQLIDGLEYLHSQGIVHKDIKPGNLLLTTGGTLKISDLGVAEALHPFAADDTCRTSQGSPAFQPPEIANGLDTFSGFKVDIWSAGVTLYNITTGLYPFEGDNIYKLFENIGKGSYAIPGDCGPPLSDLLKGMLEYEPAKRFSIRQIRQHSWFRKKHPPAEAPVPIPPSPDTKDRWRSMTVVPYLFDLHGADEDEDLFDIEDDIIYTQDFTVPGQVPEEEASHNGQRRGLPKAVCMNGTEAAQLSTKSRAEGRAPNPARKACSASSKIRRLSACKQQ [E342F],1.14 ± 0.25
4,MEVVDPQQLGMFTEGELMSVGMDTFIHRIDSTEVIYQPRRKRAKLIGKYLMGDLLGEGSYGKVKEVLDSETLCRRAVKILKKKKLRRIPNGEANVKKEIQLLRRLRHKNVIQLVDVLYNEEKQKMYMVMEYCVCGMQEMLDSVPEKRFPVCQAHGYFCQLIDGLEYLHSQGIVHKDIKPGNYLLTTGGTLKISDLGVAEALHPFAADDTCRTSQGSPAFQPPEIANGLDTFSGFKVDIWSAGVTLYNITTGLYPFEGDNIYKLFENIGKGSYAIPGDCGPPLSDLLKGMLEYEPAKRFSIRQIRQHSWFRKKHPPAEAPVPIPPSPDTKDRWRSMTVVPYLEDLHGADEDEDLFDIEDDIIYTQDFTVPGQVPEEEASHNGQRRGLPKAVCMNGTEAAQLSTKSRAEGRAPNPARKACSASSKIRRLSACKQQ [L182Y],-0.00243 ± 0.071
5,MEVVDPQQLGMFTEGELMSVGMDTFIHRIDSTEVIYQPRRKRAKLIGKYLMGDLLGEGSYGKVKEVLDSETLCRRAVKILKKKKLRRIPNGEANVKKEIQLLRRLRHKNVIQLVDVLYNEEKQKMYMVMEYCVCGMQEMLDSVPEKRFPVCQAHGYFCQLIDGLEYLHSQGIVHKDIKPGNLLLTTGGTLKISDLGVAEALHPFAADDTCRTSQGSPAFQPPEIANGLDTFSGFKVDIWSAGVTLYNITTGLYPFEGDNIYKLFENIGKGSYAIPGDCGPPLSDLLKGMLEYEPAKRFSIRQIRQHSWFRKKHPPAEAPVPIPPSPDTKDRWRLMTVVPYLEDLHGADEDEDLFDIEDDIIYTQDFTVPGQVPEEEASHNGQRRGLPKAVCMNGTEAAQLSTKSRAEGRAPNPARKACSASSKIRRLSACKQQ [S334L],1.24 ± 0.18
6,MEVVDPQQLGMFTEGELMSVGMDTFIHRIDSTEVIYQPRRKRAKLIGKYLMGDLLGEGSYGKVKEVLDSETLCRRAVKILKKKKLRRIPNGEANVKKEIQLLRRLRHKNVIQLVDVLYNEEKQKMYMVMEYCVCGMQEMLDSVPEKRFPVCQAHGYFCQLIDGLEYLHSQGIVHKDIKPGNLLLTTGGTLKISDLGVAEALHPFAADDTCRTSQGSPAFQPPEIANGLDTFSGFKVDIWSAGVTLYNITTGLYPFEGDNIYKLFENIGKGSYAIPGDCGPPLSDLLKGMLEYERAKRFSIRQIRQHSWFRKKHPPAEAPVPIPPSPDTKDRWRSMTVVPYLEDLHGADEDEDLFDIEDDIIYTQDFTVPGQVPEEEASHNGQRRGLPKAVCMNGTEAAQLSTKSRAEGRAPNPARKACSASSKIRRLSACKQQ [P294R],0.705 ± 0.19
7,MEVVDPQQLGMFTEGELMSVGMDTFIHRIDSTEVIYQPRRKRAKLIGKYLMGDLLGEGSYGKVKEVLDSETLCRRAVKILKKKKLRRIPNGEANVKKEIQLLRRLRHKNVIQLVDVLYNEEKQKMYMVMEYCVCGMQEMLDSVPEKRFPVCQAHGYFCQLIDGLEYLHSQGIVHKDIKPGNLLLTTGGTLKISDLGVAEALHPFAADDTCRTSQGSPAFQPPEIANGLDTFSGFKVDIWSAGVTLYNITTGLYPFEGDNIYKLFENIGKGSYAIPGDCGPPLSDLLKGMLEYEPAKRFSIRQIRQHSWFRKKHPPAEAPVPIPPSPDTKDRWRSMTVVPYLEDLHGADEDEDLFDIEDDIIYTQDFTVPGQVLEEEASHNGQRRGLPKAVCMNGTEAAQLSTKSRAEGRAPNPARKACSASSKIRRLSACKQQ [P373L],1.13 ± 0.38
8,MEVVDPQQLGMFTEGELMSVGMDTFIHRIDSTEVIYQPRRKRAKLIGKYLMGDLLGEGSYGKVKEVLDSETLCRRAVKILKKKKLRRIPNGEANVKKEIQLLRRLRHKNVIQLVDVLYNEEKQKMYMVMEYCVCGMQEMLDSVPEKRFPVCQAHGYFCQLIDGLEYLHSQGIVHKDIKPGNLLLTTGGTLKISDLGVAEALHPFAADDTCRTSQGSPAFQPPEIANGLDTFSGFKVDIWSAGVTLYNITTGLYPFLGDNIYKLFENIGKGSYAIPGDCGPPLSDLLKGMLEYEPAKRFSIRQIRQHSWFRKKHPPAEAPVPIPPSPDTKDRWRSMTVVPYLEDLHGADEDEDLFDIEDDIIYTQDFTVPGQVPEEEASHNGQRRGLPKAVCMNGTEAAQLSTKSRAEGRAPNPARKACSASSKIRRLSACKQQ [E256L],1.52 ± 0.31
9,MEVVDPQQLGMFTEGELMSVGMDTFIHRIDSTEVIYQPRRKRAKLIGKYLMGDLLGEGSYGKVKEVLDSETLCRRAVKILKKKKLRRIPNGEANVKKEIQLLRRLRHKNVIQLVDVLYNEEKQKMYMVMEYCVCGMQEMLDSVPEKRFPVCQAHGYFCQLIDGLEYLHSQGIVHKDIKPGNLLLTTGGTLKISDLGVAEALHPFAADDTCRTSQGSPAFQPPEIANGLDTFSGFKVDIWSAGVTLYNITTGLYPFEGDNIYKLFENIGKGSYAIPGDCGPPLGDLLKGMLEYEPAKRFSIRQIRQHSWFRKKHPPAEAPVPIPPSPDTKDRWRSMTVVPYLEDLHGADEDEDLFDIEDDIIYTQDFTVPGQVPEEEASHNGQRRGLPKAVCMNGTEAAQLSTKSRAEGRAPNPARKACSASSKIRRLSACKQQ [S283G],1.19 ± 0.11
10,MEVVDPQQLGMFTEGELMSVGMDTFIHRIDSTEVIYQPRRKRAKLIGKYLMGDLLGEGSYGKVKEVLDSETLCRRAVKILKKKKLRRIPNGEANVKKEIQLLRRLRHKNVIQLVDVLYNEEKQKMYMVMEYCVCGMQEMLDSVPEKRFPVCQAHGYFCQLIDGLEYLHSQGIVHKDIKPGNLLLTTGGTLKISDLGVAEALHPFAADDTCRTSQGSPAFQPPEIANGLDTFSGFKVDIWSAGVTLYNITTGLYPFEGDNIYKLFENIGKGSYAIPGDCGPPLSDLLKGMLEYEPAKRFSIRQIRQHSWFRKKHPPAEAPVPIPPSPDTKDRWRSMTVVPYLEDLHGADEDEDLFDIEDDIIYTQDFTVPGQRPEEEASHNGQRRGLPKAVCMNGTEAAQLSTKSRAEGRAPNPARKACSASSKIRRLSACKQQ [V372R],1.42 ± 0.38
11,MEVVDPQQLGMFTEGELMSVGMDTFIHRIDSTEVIYQPRRKRAKLIGKYLMGDLLGEGSYGKVKEVLDSETLCRRAVKILKKKKLRRIPNGEANVKKEIQLLRRLRHKNVIQLVDVLYNEEKQKMYMVMEYCVCGMQEMLDSVPEKRFPVCQAFGYFCQLIDGLEYLHSQGIVHKDIKPGNLLLTTGGTLKISDLGVAEALHPFAADDTCRTSQGSPAFQPPEIANGLDTFSGFKVDIWSAGVTLYNITTGLYPFEGDNIYKLFENIGKGSYAIPGDCGPPLSDLLKGMLEYEPAKRFSIRQIRQHSWFRKKHPPAEAPVPIPPSPDTKDRWRSMTVVPYLEDLHGADEDEDLFDIEDDIIYTQDFTVPGQVPEEEASHNGQRRGLPKAVCMNGTEAAQLSTKSRAEGRAPNPARKACSASSKIRRLSACKQQ [H154F],0.39 ± 0.065
12,MEVVDPQQLGMFTEGELMSVGMDTFIHRIDSTEVIYQPRRKRAKLIGKYLMGDLLGEGSYGKVKEVLDSETLCRRAVKILKKKKLRRIPNGEANVKKEIQLLRRLRHKNVIQLVDVLYNEEKQKMYMVMEYCVCGMQEMLDSVPEKRFPVCQAHGYFCQLIDGLEYLHSQGIVHKDIKPGNLLLTTGGTLKISDLGVAEALHPFAADDTCRTSQGSPAFQPPEIANGLDTFSGFKVDIWSAGVTLYNITTGLYPFEGDNIYKLFENIGKGSYAIPGDCGPPLSDLLKGMLEYEPAKRFSIRQIRQHSWFRKKHPPAEAPVPIPPSPDTKDRWRSMTVVPYLEDLHGADEDEDLFDIEDDIIYTQDFTVIGQVPEEEASHNGQRRGLPKAVCMNGTEAAQLSTKSRAEGRAPNPARKACSASSKIRRLSACKQQ [P369I],1.21 ± 0.27
13,MEVVDPQQLGMFTEGELMSVGMDTFIHRIDSTEVIYQPRRKRAKLIGKYLMGDLLGEGSYGKVKEVLDSETLCRRAVKILKKKKLRRIPNGEANVKKEIQLLRRLRHKNVIQLVDVLYNEEKQKMYMVMEYCVCGMQEMLDSVPEKRFPVCQAHGYFCQLIDGLEYLHSQGIVHKDIKPGNLLLTTGGTLKISDLGVAEALHPFAADDTCRTSQGSPAFQPPEIANGLDTFSGFKVDIWSAGVTLYNITTGLYPFEGDNIYKLFENIGKGSYAIPGDCGPPLSDLLKGMLEYEPAKRFSIRQIRQHSWFRKKHPPAEAPVPIPPSPITKDRWRSMTVVPYLEDLHGADEDEDLFDIEDDIIYTQDFTVPGQVPEEEASHNGQRRGLPKAVCMNGTEAAQLSTKSRAEGRAPNPARKACSASSKIRRLSACKQQ [D327I],1.6 ± 0.27
14,MEVVDPQQLGMFTEGELMSVGMDTFIHRIDSTEVIYQPRRKRAKLIGKYLMGDLLGEGSYGKVKEVLDSETLCRRAVKILKKKKLRRIPNGEANVKKEIQLLRRLRHKNVIQLVDVLYNEEKQKMYMVMEYCVCGMQEMLDSVPEKRFPVCQAHGYFCQLIDGLEYLHSQGIVHKDIKPGNLLLTTGGTLKISDLGVAEALHPFAADDTCRTSQGSPAFQPPEIANGLDTFSGFKVDIWSAGVTLYNITTGLYPFEGDNIYKLFENIGKGSYAIPGDCGPPLSDLLKGMLEYEPAKRFSIRQIRQHSWFRKKHPPAEAPVPIPPSPDTKDRWRSMTVVPYLEDLHGADEDEDLFDIEDDIIYTQDFTVPGQVPEEEASHNGQRRGLPKAVCMNGTEAAQLSTKSRAEGRAPNPARKACSASSSIRRLSACKQQ [K423S],1.56 ± 0.13
